According to paper PMC13292882 (2025):
No end group written: not given here.

B1: Pogo-Ligase peptide (peptide)
chain: SAVLQKKITDYFHPKK
modifications: also: fluorescein-labeled, position not given here
B2: SMARCAL peptide (peptide)
chain: LTEEQRKKIEENRQKALARRAEKLLA
modifications: also: fluorescein-labeled, position not given here

Columns and labels:
[1] = target: Proliferating Cell Nuclear Antigen (PCNA) (UniProt P12004 1-261); assay: FP
[2] = target: RPA32 winged-helix domain (RPA32-WH) (amino acids 202-270) (UniProt P15927 202-270); assay: FP
Chain of RPA32 winged-helix domain (RPA32-WH) (amino acids 202-270) (P15927 202-270): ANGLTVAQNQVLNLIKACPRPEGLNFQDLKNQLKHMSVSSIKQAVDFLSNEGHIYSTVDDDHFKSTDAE

Chain of Proliferating Cell Nuclear Antigen (PCNA) (P12004 whole entry, the tested form may be a part): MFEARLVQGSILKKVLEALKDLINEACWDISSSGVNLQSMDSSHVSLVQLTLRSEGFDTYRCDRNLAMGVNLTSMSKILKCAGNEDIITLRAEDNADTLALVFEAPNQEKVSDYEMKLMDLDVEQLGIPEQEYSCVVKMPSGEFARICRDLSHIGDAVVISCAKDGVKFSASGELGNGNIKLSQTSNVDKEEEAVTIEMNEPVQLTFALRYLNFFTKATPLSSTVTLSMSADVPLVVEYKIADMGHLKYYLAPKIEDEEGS

Binder | Kd [1] [µM] | Kd [2] [µM]
B1 | 0.051 | –
B2 | – | 13.5
